Results on 4 molecules are retold here after patent US20150359911, “Aptamer Specific to Integrin alpha-v-beta-3 and Use Thereof” (POSTECH ACADEMY-INDUSTRY FOUNDATION, published 2015).

What all share (conditions): tags: R&D Systems 3050-AV
The target in data set [1] is T1, Integrin alpha-v beta-3 (UniProt P06756;P05106 P06756:31-992,P05106:27-718). The experiment in a line: filter; Bmax 0.82; HEPES, NaCl, KCl, MgCl2 buffer, 37 C. As for the experimental part: (§1) 20,000 cpm of the labeled DNA pool were put in 100 μL 1×SB buffer (200 mM HEPES, 510 mM NaCl, 25 mM KCl, 25 mM MgCl₂), and slowly cooled from 95° C. to 37° C. at a rate of 0.1° C./sec. And, integrin αᵥβ₃ (R&D systems, 3050-AV) was serially diluted to 12 points at 100 nM using buffer (200 mM HEPES, 510 mM NaCl, 25 mM KCl, 25 mM MgCl₂), and then, 30 μL of the above heated and cooled DNA pool was respectively added and reacted at 37° C. for 30 minutes. A nylon membrane (GE healthcare) was spotted with 2 μL of the complex of DNA and integrin αᵥβ₃, and then, 5.5 μL of zorbax resin (Agilent) was added thereto. And, it was put in a Durapore filter (Millipore) previously wetted with 50 μL of 1×SB buffer (200 mM HEPES, 510 mM NaCl, 25 mM KCl, 25 mM MgCl₂) and vacuum was applied. And, the membrane filter was washed with 100 μL of 1× selection buffer (200 mM HEPES, 510 mM NaCl, 25 mM KCl, 25 mM MgCl₂). The filter plate was exposed to an image plate overnight, and then, images were quantified with FLA-5100 (Fuji).
T1 sequence (P06756 31-992, chain 1 of 2): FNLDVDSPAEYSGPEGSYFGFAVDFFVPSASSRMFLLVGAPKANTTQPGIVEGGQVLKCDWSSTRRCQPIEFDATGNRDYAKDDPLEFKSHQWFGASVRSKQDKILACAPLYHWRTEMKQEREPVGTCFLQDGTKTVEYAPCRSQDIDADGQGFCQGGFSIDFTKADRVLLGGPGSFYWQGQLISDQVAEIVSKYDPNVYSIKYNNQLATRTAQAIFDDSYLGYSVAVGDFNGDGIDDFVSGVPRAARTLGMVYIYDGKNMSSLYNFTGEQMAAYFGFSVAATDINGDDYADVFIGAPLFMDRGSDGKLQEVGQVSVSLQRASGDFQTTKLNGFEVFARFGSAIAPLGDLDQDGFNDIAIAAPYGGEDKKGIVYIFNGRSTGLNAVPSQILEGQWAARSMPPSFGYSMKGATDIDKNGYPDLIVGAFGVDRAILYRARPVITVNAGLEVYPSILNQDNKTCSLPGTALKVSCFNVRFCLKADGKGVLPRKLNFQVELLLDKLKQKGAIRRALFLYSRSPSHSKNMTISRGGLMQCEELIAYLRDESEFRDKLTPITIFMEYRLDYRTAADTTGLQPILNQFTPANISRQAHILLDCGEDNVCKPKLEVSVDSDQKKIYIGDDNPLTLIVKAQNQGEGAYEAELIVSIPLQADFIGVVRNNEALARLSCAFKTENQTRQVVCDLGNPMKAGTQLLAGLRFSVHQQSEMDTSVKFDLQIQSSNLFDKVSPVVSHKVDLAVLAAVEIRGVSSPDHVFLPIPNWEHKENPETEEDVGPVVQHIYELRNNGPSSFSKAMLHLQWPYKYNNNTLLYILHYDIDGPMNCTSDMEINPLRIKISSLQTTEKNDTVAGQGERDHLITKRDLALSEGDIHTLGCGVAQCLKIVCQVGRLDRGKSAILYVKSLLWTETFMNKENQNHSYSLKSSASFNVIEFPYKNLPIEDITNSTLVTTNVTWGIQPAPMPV
T1 sequence (P05106 27-718, chain 2 of 2): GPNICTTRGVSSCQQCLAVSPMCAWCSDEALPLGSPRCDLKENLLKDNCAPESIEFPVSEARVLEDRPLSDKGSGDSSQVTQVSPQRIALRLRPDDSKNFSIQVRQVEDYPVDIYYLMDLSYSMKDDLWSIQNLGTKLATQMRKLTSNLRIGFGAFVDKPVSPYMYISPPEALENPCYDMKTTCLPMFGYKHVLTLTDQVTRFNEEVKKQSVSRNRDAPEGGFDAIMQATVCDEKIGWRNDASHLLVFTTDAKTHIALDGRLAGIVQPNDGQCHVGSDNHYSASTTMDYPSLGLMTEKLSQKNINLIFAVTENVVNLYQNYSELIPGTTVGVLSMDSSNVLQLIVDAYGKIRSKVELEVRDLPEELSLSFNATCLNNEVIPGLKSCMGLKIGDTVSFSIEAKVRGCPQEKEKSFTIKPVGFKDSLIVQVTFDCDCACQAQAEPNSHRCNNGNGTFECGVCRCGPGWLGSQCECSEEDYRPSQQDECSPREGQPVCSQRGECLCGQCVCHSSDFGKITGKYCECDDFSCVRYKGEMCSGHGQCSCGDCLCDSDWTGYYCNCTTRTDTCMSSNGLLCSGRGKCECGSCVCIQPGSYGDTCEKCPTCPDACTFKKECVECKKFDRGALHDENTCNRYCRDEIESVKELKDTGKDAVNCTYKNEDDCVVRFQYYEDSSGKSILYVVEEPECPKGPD
(§2) In order to examine binding affinity of clone having repeatedly observed base sequence, filter binding assay was conducted by the same method as pool binding assay. The binding affinity was calculated using SigmaPlot 11 (Systat Software Inc.) from the value obtained through the filter binding assay, and the results are shown in the following Table 4. […]

Data set [2] deals with T1, Integrin alpha-v beta-3. The experiment in a line: filter; Bmax 0.88; HEPES, NaCl, KCl, MgCl2 buffer, 37 C. The protocol:
as §1, §2

For data set [3], the target named is T1, Integrin alpha-v beta-3. The experiment in a line: filter; Bmax 0.56; HEPES, NaCl, KCl, MgCl2 buffer, 37 C. As for the experimental part:
as §1, §2

Data set [4] concerns the target T1, Integrin alpha-v beta-3. Description: filter; Bmax 0.69; HEPES, NaCl, KCl, MgCl2 buffer, 37 C. The protocol:
as §1, §2

B1: Clone #25 (S003-A4-025-T7_A04), full length (ssDNA)
DNA: TCAGCCGCCAGCCAGTTCGTTTTAAGAAATTAGCACACCGTTGACTTGTTTAGTGGCGGACCAGAGCACCACAGAG
modifications: n in core = 5-(N-benzylaminocarbonyl)-2'-deoxyuridine (BzdU) [n positions 20,21,22,23,30,31,41,42,46,47,49,50,51,54 = modified dU]
A word on the Kd: it is the constant that tells how readily two partners part at equilibrium. Turning to B1, the Kd in the data set with Integrin alpha-v beta-3 [1] is 17.6 nM.

B2: Clone #21 (S003-A4-021-T7_E03), full length (ssDNA)
DNA: TCAGCCGCCAGCCAGTTCCGAGGGAGTTATGGAGATTGTGTTGTTTAAGGTCGGAACTGACCAGAGCACCACAGAG
modifications: n in core = 5-(N-benzylaminocarbonyl)-2'-deoxyuridine (BzdU) [n positions 27,28,30,36,37,39,41,42,44,45,46,51,58 = modified dU]
On to B2, for which, in the data set with Integrin alpha-v beta-3 [2], the Kd is 59 nM.

B3: Clone #11 (S003-A4-011-T7_C02), full length (ssDNA)
DNA: TCAGCCGCCAGCCAGTTCTTTTAATCTTCTCTGTCAGATGGCTGGTAGGGTGTATGACGACCAGAGCACCACAGAG
modifications: n in core = 5-(N-benzylaminocarbonyl)-2'-deoxyuridine (BzdU) [n positions 19,20,21,22,25,27,28,30,32,34,39,43,46,51,53,55 = modified dU]
For B3, in the data set with Integrin alpha-v beta-3 [3], binding was characterised by a dissociation constant (Kd) of 38 nM.

B4: Clone #12 (S003-A4-012-T7_D02), full length (ssDNA)
DNA: TCAGCCGCCAGCCAGTTCAGTTGCCAATTTGCAGCCTAGGATACGTTTTCGAAACTGCAGACCAGAGCACCACAGAG
modifications: n in core = 5-(N-benzylaminocarbonyl)-2'-deoxyuridine (BzdU) [n positions 21,22,28,29,30,37,42,46,47,48,49,56 = modified dU]
Consider B4, for which the Kd in the data set with Integrin alpha-v beta-3 [4] amounted to 23.2 nM.
